# Test results: patent US20210047402A1 (published 2021)
# Where a chain is given by its changes, count along the chain named. Where two headings read alike, the source gives them in different places.
# B1: anti-CD22 heavy chain-only antibody Clone ID 335232 (antibody, V domains shown)
# VH: QLQLQESGPGLVKPSETLSLTCTVSGDSISSGDYYWGWIRQPPGKGLEWIGHIYYSGATYYNPSLKNRVTISVDTSRNQSSLNLSSVTAADTAVYYCTREDSSNWRSRGQGTLVTVSS
# B2: anti-CD22 heavy chain-only antibody Clone ID 335171 (antibody, V domains shown)
# VH: B1 VH with D27G, G32S, D33S, H52S, S80F, E100D
# B3: anti-CD22 heavy chain-only antibody Clone ID 335263 (antibody, V domains shown)
# VH: B1 VH with D27G, S30N, S31D, G32N, D33S, Y34H, S80F, N104S
# B4: anti-CD22 heavy chain-only antibody Clone ID 335323 (antibody, V domains shown)
# VH: B1 VH with D33G, H52S, A58S, R77K, S80F, N83K, N104S
# B5: anti-CD22 heavy chain-only antibody Clone ID 335203 (antibody, V domains shown)
# VH: B1 VH with A58V, R77K, S80F, N83K
# B6: anti-CD22 heavy chain-only antibody Clone ID 335176 (antibody, V domains shown)
# VH: B1 VH with R77K, S80F, N83K, E100D
# B7: anti-CD22 heavy chain-only antibody Clone ID 335154 (antibody, V domains shown)
# VH: B1 VH with A58V, R77K, S80F, N83K, E100D
# B8: anti-CD22 heavy chain-only antibody Clone ID 335261 (antibody, V domains shown)
# VH: B1 VH with K66E, R77K, S80F, N83K, N104S
# B9: anti-CD22 heavy chain-only antibody Clone ID 335260 (antibody, V domains shown)
# VH: B1 VH with A58V, S80F, N104S
# B10: anti-CD22 heavy chain-only antibody Clone ID 335207 (antibody, V domains shown)
# VH: B1 VH with A58V, N67S, S80F, N83K
# B11: anti-CD22 heavy chain-only antibody Clone ID 335234 (antibody, V domains shown)
# VH: B1 VH with H52N, R77K, S80F, N83K
# B12: anti-CD22 heavy chain-only antibody Clone ID 335201 (antibody, V domains shown)
# VH: B1 VH with A58V, S80F, N83K
# Experiments:
# [1] = target: T1, human CD22 (human, UniProt P20273 20-687); experiment: BLI
# T1 sequence (P20273 20-687): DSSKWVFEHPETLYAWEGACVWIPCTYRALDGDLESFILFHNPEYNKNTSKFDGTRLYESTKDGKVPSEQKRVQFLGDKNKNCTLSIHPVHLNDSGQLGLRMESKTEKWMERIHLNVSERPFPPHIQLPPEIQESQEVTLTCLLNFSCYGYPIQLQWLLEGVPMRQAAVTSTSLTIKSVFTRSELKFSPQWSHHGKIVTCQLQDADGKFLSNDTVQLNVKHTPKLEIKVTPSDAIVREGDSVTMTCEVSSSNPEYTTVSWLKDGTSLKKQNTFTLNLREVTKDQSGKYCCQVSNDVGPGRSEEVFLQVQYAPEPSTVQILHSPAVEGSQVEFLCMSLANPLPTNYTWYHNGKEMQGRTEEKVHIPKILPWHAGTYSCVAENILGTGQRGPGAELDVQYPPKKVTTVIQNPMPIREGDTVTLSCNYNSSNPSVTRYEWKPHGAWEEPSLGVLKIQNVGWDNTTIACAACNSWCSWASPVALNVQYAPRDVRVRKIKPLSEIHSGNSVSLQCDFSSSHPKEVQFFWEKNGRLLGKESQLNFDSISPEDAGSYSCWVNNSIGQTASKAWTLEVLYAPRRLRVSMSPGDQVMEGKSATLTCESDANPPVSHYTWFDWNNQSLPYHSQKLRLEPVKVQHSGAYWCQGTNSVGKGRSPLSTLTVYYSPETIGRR
# In short: (§1)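 Binding affinity was measured by biolayer interferometry, with Kd taken as koff/kon. The instrument was an Octet QK-384 with anti-human IgG Fc capture biosensors, run in 1×PBS, 0.1% BSA, 0.02% Tween-20, pH 7.2. After loading at 5 μg/mL for 120 seconds, the heavy chain-only antibodies were exposed to human CD22 protein in a 7-point 1:2 series from 250 nM, with a buffer-only reference well. Rate constants came from a 1:1 binding model in Octet Data Analysis v9.0.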
# [2] = target: T1, human CD22; experiment: BLI; remark: listed apart in the source
# In short: as §1
Binder,Kd [1] [nM],Kd [2] [nM]
B1,24.6,–
B2,84.5,–
B3,2580,–
B4,–,14.1
B5,–,6.8
B6,–,4.62
B7,–,5.41
B8,–,5.27
B9,–,3.17
B10,–,3.24
B11,–,12.4
B12,–,5.19
